Reference: PMC8472264

Biological target: ArtB (untagged receptor-binding subunit of S. Typhimurium DT104 ArtAB) (Salmonella enterica Typhimurium DT104)
Test: SDS-PAGE of unboiled samples

Substance: ArtB (untagged receptor-binding subunit of S. Typhimurium DT104 ArtAB) (natural protein)
- stoichiometry N: 5
